In the supplement of paper PMC9732359:
± gives the uncertainty stated by the source.

Experiment: protein stability index of a GFP-peptide fusion (yeast GPS) (PSI 1-4); higher = more stable; sorted into four equal gates, so the index is relative within each strain
How it was run: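 For each peptide, the protein stability index sums the read frequency in every gate after multiplying it by the gate number. Read frequencies came from plasmids that were PCR-amplified from each gate and Illumina-sequenced, with reads assigned to strains by barcodes. The gates were four equal bins of GFP/Cherry fluorescence ratio applied to mid-log yeast in leucine-free medium carrying a pooled library of tiled 17-residue yeast protein peptides fused downstream of GFP on a Cherry-expressing plasmid.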

SRNGDFPRTRFEAQIDS [RPN10] gave a protein stability index (doa10∆) of 3.09 ± 0.12, a protein stability index (pdr5∆) of 3.28 ± 0.12 and a protein stability index (san1∆) of 3.34 ± 0.077. For the same sequence, the protein stability index (ubr1∆) was 3.23 ± 0.086.
With PGNGKHASENISLSFSR [SIR4] the protein stability index (doa10∆) was 2.49 ± 0.081, the protein stability index (pdr5∆) was 2.88 ± 0.062 and the protein stability index (san1∆) was 2.97 ± 0.061. The protein stability index (ubr1∆) was 3.05 ± 0.058.
For VDENETVLESLGRLNKL [LIN1], the protein stability index (doa10∆) was 2.79 ± 0.075, the protein stability index (pdr5∆) was 3.03 ± 0.073 and the protein stability index (san1∆) was 2.88 ± 0.069. For the same sequence, the protein stability index (ubr1∆) was 3.03 ± 0.053.
HIQEEEEQDVDMTGDEE [RPC19] showed a protein stability index (doa10∆) of 3.38 ± 0.15, a protein stability index (pdr5∆) of 3.35 ± 0.13 and a protein stability index (san1∆) of 3.05 ± 0.075. The protein stability index (ubr1∆) was 3.27 ± 0.063.
IREKVAKQALDLYHFAL [SNF2] showed a protein stability index (doa10∆) of 2.52 ± 0.092, a protein stability index (pdr5∆) of 2.64 ± 0.098 and a protein stability index (san1∆) of 2.62 ± 0.094. It also gave a protein stability index (ubr1∆) of 2.54 ± 0.056.
For TYSFIDNDRFNVVGKLI [YML103C/NUP188], the protein stability index (doa10∆) was 2.34 ± 0.058, the protein stability index (pdr5∆) was 2.27 ± 0.06 and the protein stability index (san1∆) was 2.07 ± 0.072. For the same sequence, the protein stability index (ubr1∆) was 2.16 ± 0.04.
FGAKPEEQKSSDTSKPA [YJL041W/NSP1] gave a protein stability index (doa10∆) of 3.23 ± 0.083, a protein stability index (pdr5∆) of 2.91 ± 0.084 and a protein stability index (san1∆) of 3.32 ± 0.088. For the same sequence, the protein stability index (ubr1∆) was 3.11 ± 0.09.
For VTLDITTLTIMRILPRE [RPT4], the protein stability index (doa10∆) was 2.53 ± 0.057, the protein stability index (pdr5∆) was 2.25 ± 0.061 and the protein stability index (san1∆) was 2.17 ± 0.081. The protein stability index (ubr1∆) was 2.45 ± 0.038.
For LNRIKKYLLTQRVFKPV [PRP8], the protein stability index (doa10∆) was 2.22 ± 0.075, the protein stability index (pdr5∆) was 2.25 ± 0.072 and the protein stability index (san1∆) was 2.33 ± 0.096. The protein stability index (ubr1∆) was 2.48 ± 0.069.
VGDFLLQYANNAVISHA [SIN4] gave a protein stability index (doa10∆) of 1.99 ± 0.074, a protein stability index (pdr5∆) of 1.79 ± 0.05 and a protein stability index (san1∆) of 1.82 ± 0.074. The protein stability index (ubr1∆) was 1.49 ± 0.035.
Work on NVVNYLSINKNFINQED [RPC17] yielded a protein stability index (doa10∆) of 1.39 ± 0.071, a protein stability index (pdr5∆) of 1.83 ± 0.061 and a protein stability index (san1∆) of 1.55 ± 0.079. The protein stability index (ubr1∆) was 1.61 ± 0.045.
TVLETLLSDVNQNQRNV [SMC3] gave a protein stability index (doa10∆) of 3.23 ± 0.13, a protein stability index (pdr5∆) of 2.94 ± 0.057 and a protein stability index (san1∆) of 3.01 ± 0.085. The protein stability index (ubr1∆) was 3.02 ± 0.082.
Sequence SSFKKNLLKFITSNHKS [RPN3] has a protein stability index (doa10∆) of 1.46 ± 0.053, a protein stability index (pdr5∆) of 1.5 ± 0.049 and a protein stability index (san1∆) of 1.3 ± 0.064. For the same sequence, the protein stability index (ubr1∆) was 1.83 ± 0.092.
Work on VVDFLKRNGSTLEQKVN [FAS1] yielded a protein stability index (doa10∆) of 2.83 ± 0.057, a protein stability index (pdr5∆) of 3.03 ± 0.049 and a protein stability index (san1∆) of 2.87 ± 0.048. It also gave a protein stability index (ubr1∆) of 3.07 ± 0.04.
Work on EQLSEEDAKLKTDLELL [RPN1] yielded a protein stability index (doa10∆) of 3.13 ± 0.15, a protein stability index (pdr5∆) of 3.25 ± 0.069 and a protein stability index (san1∆) of 3.25 ± 0.1. For the same sequence, the protein stability index (ubr1∆) was 3 ± 0.13.
Sequence KIALREYINNCKKNTKK [POP4] has a protein stability index (pdr5∆) of 2.86 ± 0.27, a protein stability index (san1∆) of 3.01 ± 0.087 and a protein stability index (ubr1∆) of 2.89 ± 0.15.
Sequence VPVIESAGFETDLRLST [SNU114] has a protein stability index (doa10∆) of 3.14 ± 0.21, a protein stability index (pdr5∆) of 3.12 ± 0.23 and a protein stability index (ubr1∆) of 3.17 ± 0.14.
SMLFKTSQKMTSTVNRL [MCD1] gave a protein stability index (doa10∆) of 2.22 ± 0.073, a protein stability index (pdr5∆) of 2.77 ± 0.15 and a protein stability index (san1∆) of 2.33 ± 0.14. For the same sequence, the protein stability index (ubr1∆) was 3.04 ± 0.14.
Work on EKIKMKLKQGQKLFVQV [GAL11] yielded a protein stability index (doa10∆) of 2.85 ± 0.13, a protein stability index (pdr5∆) of 3.2 ± 0.09 and a protein stability index (san1∆) of 3.28 ± 0.074. It also gave a protein stability index (ubr1∆) of 3.23 ± 0.14.
Work on RLKDVEWVKLHRLLQRA [RMP1] yielded a protein stability index (doa10∆) of 3.16 ± 0.085, a protein stability index (pdr5∆) of 3.13 ± 0.093 and a protein stability index (san1∆) of 3.24 ± 0.06. For the same sequence, the protein stability index (ubr1∆) was 3.02 ± 0.079.
VSDSNDDVRRAAVIALG [RPN2] showed a protein stability index (doa10∆) of 3.26 ± 0.1, a protein stability index (pdr5∆) of 3.26 ± 0.13 and a protein stability index (san1∆) of 2.7 ± 0.17. For the same sequence, the protein stability index (ubr1∆) was 3.42 ± 0.14.
SVRLQRFYQLGVDLKLK [CSN12] gave a protein stability index (doa10∆) of 3.2 ± 0.21, a protein stability index (pdr5∆) of 3.13 ± 0.23 and a protein stability index (san1∆) of 3.01 ± 0.24. It also gave a protein stability index (ubr1∆) of 3.06 ± 0.12.
In the case of AITHMIDALGTEFSKND [SCL1], the protein stability index (doa10∆) is reported as 2.47 ± 0.069, the protein stability index (pdr5∆) is reported as 2.54 ± 0.044 and the protein stability index (san1∆) is reported as 2.7 ± 0.08. It also gave a protein stability index (ubr1∆) of 2.61 ± 0.031.
SNETIGEIQLLFQRQKL [IRR1] showed a protein stability index (doa10∆) of 2.61 ± 0.22, a protein stability index (pdr5∆) of 2.8 ± 0.17 and a protein stability index (san1∆) of 3.14 ± 0.14.
With AFSSVEHIIRDVHNGYI [COB] the protein stability index (doa10∆) was 3.16 ± 0.23, the protein stability index (pdr5∆) was 3 ± 0.26 and the protein stability index (san1∆) was 3.37 ± 0.24. The protein stability index (ubr1∆) was 2.99 ± 0.16.
In the case of SDPAAKKTATEPKQKAN [SRP21], the protein stability index (doa10∆) is reported as 3.21 ± 0.11, the protein stability index (pdr5∆) is reported as 3.04 ± 0.09 and the protein stability index (san1∆) is reported as 3.32 ± 0.046. The protein stability index (ubr1∆) was 3.01 ± 0.11.
AGLEITSDNLLTITKAA [RPP1B] gave a protein stability index (doa10∆) of 2.42 ± 0.051, a protein stability index (pdr5∆) of 2.55 ± 0.048 and a protein stability index (san1∆) of 2.78 ± 0.064. For the same sequence, the protein stability index (ubr1∆) was 2.65 ± 0.046.
In the case of LGVEDITLIDSASLHLN [RET1], the protein stability index (doa10∆) is reported as 2.03 ± 0.063, the protein stability index (pdr5∆) is reported as 1.61 ± 0.043 and the protein stability index (san1∆) is reported as 1.8 ± 0.1. The protein stability index (ubr1∆) was 1.8 ± 0.046.
ELEGSFNKSAELSRIEN [YCS4] gave a protein stability index (doa10∆) of 2.58 ± 0.13, a protein stability index (pdr5∆) of 3.22 ± 0.23 and a protein stability index (san1∆) of 3.12 ± 0.087. It also gave a protein stability index (ubr1∆) of 3.11 ± 0.12.
Sequence LDIKRVGSENVECTISI [SNF12] has a protein stability index (doa10∆) of 2.27 ± 0.067, a protein stability index (pdr5∆) of 2.78 ± 0.066 and a protein stability index (san1∆) of 2.56 ± 0.056. For the same sequence, the protein stability index (ubr1∆) was 2.81 ± 0.065.
For AFGGLNFGGGNNTTPSS [YJL041W/NSP1], the protein stability index (doa10∆) was 1.32 ± 0.061, the protein stability index (pdr5∆) was 1.29 ± 0.064 and the protein stability index (san1∆) was 1.46 ± 0.087. For the same sequence, the protein stability index (ubr1∆) was 1.21 ± 0.13.
In the case of LHGNAKKAAEEAGVTDV [FAS2], the protein stability index (doa10∆) is reported as 3.42 ± 0.12, the protein stability index (pdr5∆) is reported as 3.18 ± 0.12 and the protein stability index (san1∆) is reported as 3.13 ± 0.12. The protein stability index (ubr1∆) was 3.34 ± 0.15.
Work on NTSAIQETASPLSQDEL [YIL149C/MLP2] yielded a protein stability index (doa10∆) of 1.23 ± 0.09, a protein stability index (pdr5∆) of 1.39 ± 0.091 and a protein stability index (san1∆) of 1.19 ± 0.17. For the same sequence, the protein stability index (ubr1∆) was 1.25 ± 0.077.
With QVLMDINTLNGGSSDTA [GAL11] the protein stability index (doa10∆) was 3.29 ± 0.074, the protein stability index (pdr5∆) was 3.22 ± 0.072 and the protein stability index (san1∆) was 3.15 ± 0.061. For the same sequence, the protein stability index (ubr1∆) was 3.1 ± 0.061.
Sequence VPFIIAAMVIMHLMALH [COB] has a protein stability index (doa10∆) of 2.08 ± 0.055, a protein stability index (pdr5∆) of 1.31 ± 0.055 and a protein stability index (san1∆) of 1.79 ± 0.16. The protein stability index (ubr1∆) was 1.43 ± 0.041.
For KIVYIAPLKALVQEQVR [BRR2], the protein stability index (doa10∆) was 1.4 ± 0.045, the protein stability index (pdr5∆) was 1.59 ± 0.044 and the protein stability index (san1∆) was 1.41 ± 0.089. The protein stability index (ubr1∆) was 1.3 ± 0.051.
With NGAFQNSSNLSYNNTGI [RRP4] the protein stability index (doa10∆) was 2.58 ± 0.069, the protein stability index (pdr5∆) was 2.85 ± 0.053 and the protein stability index (san1∆) was 2.98 ± 0.045. For the same sequence, the protein stability index (ubr1∆) was 2.84 ± 0.055.
Sequence GDPALVYKFMSLAKSSA [ECM29] has a protein stability index (doa10∆) of 3.22 ± 0.11, a protein stability index (pdr5∆) of 2.77 ± 0.08 and a protein stability index (san1∆) of 2.54 ± 0.089. For the same sequence, the protein stability index (ubr1∆) was 3.09 ± 0.054.
With TATAATNGNNAGGGSNK [MED6] the protein stability index (doa10∆) was 3.23 ± 0.12, the protein stability index (pdr5∆) was 3.41 ± 0.085 and the protein stability index (san1∆) was 3.27 ± 0.11. For the same sequence, the protein stability index (ubr1∆) was 3.46 ± 0.1.
In the case of EKGLNELSIRDVTHTLG [SMC4], the protein stability index (doa10∆) is reported as 1.34 ± 0.14, the protein stability index (pdr5∆) is reported as 2.42 ± 0.092 and the protein stability index (san1∆) is reported as 2.48 ± 0.17. It also gave a protein stability index (ubr1∆) of 1.57 ± 0.1.
TKGDSTPVQPDLSVTPQ [YAR002W/NUP60] showed a protein stability index (doa10∆) of 3.22 ± 0.036, a protein stability index (pdr5∆) of 3.16 ± 0.036 and a protein stability index (san1∆) of 2.984 ± 0.028. It also gave a protein stability index (ubr1∆) of 3.098 ± 0.024.
